Measurements taken from the RNAGym collection of RNA variant scans (doi:10.1021/acssynbio.7b00057).

B1: Pistol ribozyme (parent)
chain: GGGUCGUUGUUCCAUAAUCGCGUGGAUAUGGCACGCAAGUUUCUACCGGGCACCGUAAAUGUCCGACUGGAGCCGUUCGGGCGGCUAUAAACAGACCUCAGGCCCGAAGCGUGGCGGCACCUGCCGCCGGUGGUAAAAAAGAUCGGAAGAGCACACGUCU

Variants of: B1
Assay: aptazyme ON/OFF ratio, guanine; higher = stronger switching; co-transcriptional cleavage with and without guanine

| Variant | aptazyme ON/OFF ratio |
| --- | --- |
| GGGUCGCCCGUGGAUAAUCGCGUGGAUAUGGCACGCAAGUUUCUACCGGGCACCGUAAAUGUCCGACUGGAGCCGUUCGGGCGGCUAUAAACAGACCUCAGGCCCGAAGCGUGGCGGCACCUGCCGCCGGUGGUAAAAAAGAUCGGAAGAGCACACGUCU [U7C U8C G9C U10G C12G C13G] | 1.09 |
| GGGUCGCCCGUGAAUAAUCGCGUGGAUAUGGCACGCAAGUUUCUACCGGGCACCGUAAAUGUCCGACUGGAGCCGUUCGGGCGGCUAUAAACAGACCUCAGGCCCGAAGCGUGGCGGCACCUGCCGCCGGUGGUAAAAAAGAUCGGAAGAGCACACGUCU [U7C U8C G9C U10G C12G C13A] | 1.05 |
| GGGUCGCCCGUGUAUAAUCGCGUGGAUAUGGCACGCAAGUUUCUACCGGGCACCGUAAAUGUCCGACUGGAGCCGUUCGGGCGGCUAUAAACAGACCUCAGGCCCGAAGCGUGGCGGCACCUGCCGCCGGUGGUAAAAAAGAUCGGAAGAGCACACGUCU [U7C U8C G9C U10G C12G C13U] | 1.1 |
| GGGUCGCCCCGACAUAAUCGCGUGGAUAUGGCACGCAAGUUUCUACCGGGCACCGUAAAUGUCCGACUGGAGCCGUUCGGGCGGCUAUAAACAGACCUCAGGCCCGAAGCGUGGCGGCACCUGCCGCCGGUGGUAAAAAAGAUCGGAAGAGCACACGUCU [U7C U8C G9C U10C U11G C12A] | 1.18 |
| GGGUCGCCCCGGCAUAAUCGCGUGGAUAUGGCACGCAAGUUUCUACCGGGCACCGUAAAUGUCCGACUGGAGCCGUUCGGGCGGCUAUAAACAGACCUCAGGCCCGAAGCGUGGCGGCACCUGCCGCCGGUGGUAAAAAAGAUCGGAAGAGCACACGUCU [U7C U8C G9C U10C U11G C12G] | 1.13 |
| GGGUCGCCCCGUCAUAAUCGCGUGGAUAUGGCACGCAAGUUUCUACCGGGCACCGUAAAUGUCCGACUGGAGCCGUUCGGGCGGCUAUAAACAGACCUCAGGCCCGAAGCGUGGCGGCACCUGCCGCCGGUGGUAAAAAAGAUCGGAAGAGCACACGUCU [U7C U8C G9C U10C U11G C12U] | 1.15 |
| GGGUCGCCCGUCGAUAAUCGCGUGGAUAUGGCACGCAAGUUUCUACCGGGCACCGUAAAUGUCCGACUGGAGCCGUUCGGGCGGCUAUAAACAGACCUCAGGCCCGAAGCGUGGCGGCACCUGCCGCCGGUGGUAAAAAAGAUCGGAAGAGCACACGUCU [U7C U8C G9C U10G C13G] | 1.1 |
| GGGUCGCCCGUCUAUAAUCGCGUGGAUAUGGCACGCAAGUUUCUACCGGGCACCGUAAAUGUCCGACUGGAGCCGUUCGGGCGGCUAUAAACAGACCUCAGGCCCGAAGCGUGGCGGCACCUGCCGCCGGUGGUAAAAAAGAUCGGAAGAGCACACGUCU [U7C U8C G9C U10G C13U] | 1.17 |
| GGGUCGCCCGUCAAUAAUCGCGUGGAUAUGGCACGCAAGUUUCUACCGGGCACCGUAAAUGUCCGACUGGAGCCGUUCGGGCGGCUAUAAACAGACCUCAGGCCCGAAGCGUGGCGGCACCUGCCGCCGGUGGUAAAAAAGAUCGGAAGAGCACACGUCU [U7C U8C G9C U10G C13A] | 1.13 |
| GGGUCGCCCCGCUAUAAUCGCGUGGAUAUGGCACGCAAGUUUCUACCGGGCACCGUAAAUGUCCGACUGGAGCCGUUCGGGCGGCUAUAAACAGACCUCAGGCCCGAAGCGUGGCGGCACCUGCCGCCGGUGGUAAAAAAGAUCGGAAGAGCACACGUCU [U7C U8C G9C U10C U11G C13U] | 1.21 |
| GGGUCGCCCCGCGAUAAUCGCGUGGAUAUGGCACGCAAGUUUCUACCGGGCACCGUAAAUGUCCGACUGGAGCCGUUCGGGCGGCUAUAAACAGACCUCAGGCCCGAAGCGUGGCGGCACCUGCCGCCGGUGGUAAAAAAGAUCGGAAGAGCACACGUCU [U7C U8C G9C U10C U11G C13G] | 1.19 |
| GGGUCGCCCCGCAAUAAUCGCGUGGAUAUGGCACGCAAGUUUCUACCGGGCACCGUAAAUGUCCGACUGGAGCCGUUCGGGCGGCUAUAAACAGACCUCAGGCCCGAAGCGUGGCGGCACCUGCCGCCGGUGGUAAAAAAGAUCGGAAGAGCACACGUCU [U7C U8C G9C U10C U11G C13A] | 1.33 |
| GGGUCGCCCGUUUAUAAUCGCGUGGAUAUGGCACGCAAGUUUCUACCGGGCACCGUAAAUGUCCGACUGGAGCCGUUCGGGCGGCUAUAAACAGACCUCAGGCCCGAAGCGUGGCGGCACCUGCCGCCGGUGGUAAAAAAGAUCGGAAGAGCACACGUCU [U7C U8C G9C U10G C12U C13U] | 1.08 |
| GGGUCGCCCGUUGAUAAUCGCGUGGAUAUGGCACGCAAGUUUCUACCGGGCACCGUAAAUGUCCGACUGGAGCCGUUCGGGCGGCUAUAAACAGACCUCAGGCCCGAAGCGUGGCGGCACCUGCCGCCGGUGGUAAAAAAGAUCGGAAGAGCACACGUCU [U7C U8C G9C U10G C12U C13G] | 1.09 |
| GGGUCGCCCGUUAAUAAUCGCGUGGAUAUGGCACGCAAGUUUCUACCGGGCACCGUAAAUGUCCGACUGGAGCCGUUCGGGCGGCUAUAAACAGACCUCAGGCCCGAAGCGUGGCGGCACCUGCCGCCGGUGGUAAAAAAGAUCGGAAGAGCACACGUCU [U7C U8C G9C U10G C12U C13A] | 1.08 |
| GGGUCGCCCGUACAUAAUCGCGUGGAUAUGGCACGCAAGUUUCUACCGGGCACCGUAAAUGUCCGACUGGAGCCGUUCGGGCGGCUAUAAACAGACCUCAGGCCCGAAGCGUGGCGGCACCUGCCGCCGGUGGUAAAAAAGAUCGGAAGAGCACACGUCU [U7C U8C G9C U10G C12A] | 1.1 |
| GGGUCGCCCGUGCAUAAUCGCGUGGAUAUGGCACGCAAGUUUCUACCGGGCACCGUAAAUGUCCGACUGGAGCCGUUCGGGCGGCUAUAAACAGACCUCAGGCCCGAAGCGUGGCGGCACCUGCCGCCGGUGGUAAAAAAGAUCGGAAGAGCACACGUCU [U7C U8C G9C U10G C12G] | 1.1 |
| GGGUCGCCCGUUCAUAAUCGCGUGGAUAUGGCACGCAAGUUUCUACCGGGCACCGUAAAUGUCCGACUGGAGCCGUUCGGGCGGCUAUAAACAGACCUCAGGCCCGAAGCGUGGCGGCACCUGCCGCCGGUGGUAAAAAAGAUCGGAAGAGCACACGUCU [U7C U8C G9C U10G C12U] | 1.2 |
